Results from PMC9482650, “Quantitative fragmentomics allow affinity mapping of interactomes” (Nature Communications, 2022).

How the values were obtained:
Assay in all cases: holdup assay
Design in all cases: key: below the threshold = too weak to quantify, mostly under pKd 3.1 to 4
Conditions in all cases: plain residues with an end cap or a label only (N-terminal biotin on a linker: gsgsgs; C-terminal amide)
APBA1_1, Q02410 = molecular target: T1, APBA1_1, Q02410
T1 sequence (Q02410 651-752, limits assumed, looked up): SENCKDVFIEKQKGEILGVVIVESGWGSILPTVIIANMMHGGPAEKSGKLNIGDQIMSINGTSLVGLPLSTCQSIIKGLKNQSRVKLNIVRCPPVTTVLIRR

ARHGEF11, O15085 = molecular target: T2, ARHGEF11, O15085
T2 sequence (O15085 42-136, limits assumed, looked up): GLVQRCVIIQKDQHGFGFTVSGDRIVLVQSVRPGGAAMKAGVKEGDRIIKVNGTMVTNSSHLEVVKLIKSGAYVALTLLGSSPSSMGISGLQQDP

ARHGEF12, Q9NZN5-2 = molecular target: ARHGEF12, Q9NZN5-2
DLG5_1, Q8TDM6 = molecular target: DLG5_1, Q8TDM6
FRMPD3, Q5JV73 = molecular target: FRMPD3, Q5JV73
GRID2IP_2, A4D2P6 = molecular target: GRID2IP_2, A4D2P6
GRIP1_2, Q9Y3R0 = molecular target: T3, GRIP1_2, Q9Y3R0
T3 sequence (Q9Y3R0 145-248, limits assumed, looked up): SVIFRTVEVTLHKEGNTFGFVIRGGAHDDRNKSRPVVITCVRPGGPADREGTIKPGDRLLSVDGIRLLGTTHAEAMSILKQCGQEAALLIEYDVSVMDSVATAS

HTRA1, Q92743 = molecular target: HTRA1, Q92743
IL16_1, Q14005 = molecular target: IL16_1, Q14005
IL16_3, Q14005 = molecular target: IL16_3, Q14005
Inadl_3, Q8NI35 = molecular target: Inadl_3, Q8NI35
Inadl_5, Q8NI35 = molecular target: Inadl_5, Q8NI35
LNX1_2, Q8TBB1 = molecular target: LNX1_2, Q8TBB1
MAGI2_2, Q86UL8 = molecular target: MAGI2_2, Q86UL8
MAGI3_2, Q5TCQ9 = molecular target: MAGI3_2, Q5TCQ9
MAST1, Q9Y2H9 = molecular target: MAST1, Q9Y2H9
MPP7, Q5T2T1 = molecular target: T4, MPP7, Q5T2T1
T4 sequence (Q5T2T1 134-230, limits assumed, looked up): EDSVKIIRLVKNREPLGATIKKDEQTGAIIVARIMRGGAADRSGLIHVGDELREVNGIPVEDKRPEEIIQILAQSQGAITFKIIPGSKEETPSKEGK

NHERF3_3, Q5T2W1 = molecular target: T5, NHERF3_3, Q5T2W1
T5 sequence (Q5T2W1 238-333, limits assumed, looked up): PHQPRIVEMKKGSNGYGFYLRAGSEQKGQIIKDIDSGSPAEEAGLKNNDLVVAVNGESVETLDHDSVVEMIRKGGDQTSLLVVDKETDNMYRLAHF

PDLIM1, O00151 = molecular target: PDLIM1, O00151
PDZRN3_1, Q9UPQ7 = molecular target: T6, PDZRN3_1, Q9UPQ7
T6 sequence (Q9UPQ7 244-349, limits assumed, looked up): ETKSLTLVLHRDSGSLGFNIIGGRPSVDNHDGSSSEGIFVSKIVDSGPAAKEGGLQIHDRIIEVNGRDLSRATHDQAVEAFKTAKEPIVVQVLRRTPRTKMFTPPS

PTPN3, P26045 = molecular target: PTPN3, P26045
RADIL, Q96JH8 = molecular target: T7, RADIL, Q96JH8
T7 sequence (Q96JH8 971-1071, limits assumed, looked up): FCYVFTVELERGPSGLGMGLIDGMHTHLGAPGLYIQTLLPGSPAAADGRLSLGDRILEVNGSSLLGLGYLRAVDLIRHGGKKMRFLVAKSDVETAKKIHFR

RAPGEF6, Q8TEU7 = molecular target: T8, RAPGEF6, Q8TEU7
T8 sequence (Q8TEU7 525-625, limits assumed, looked up): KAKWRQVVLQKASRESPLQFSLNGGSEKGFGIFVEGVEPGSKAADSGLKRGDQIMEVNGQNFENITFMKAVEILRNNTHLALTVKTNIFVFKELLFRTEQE

RHPN1, Q8TCX5 = molecular target: T9, RHPN1, Q8TCX5
T9 sequence (Q8TCX5 508-602, limits assumed, looked up): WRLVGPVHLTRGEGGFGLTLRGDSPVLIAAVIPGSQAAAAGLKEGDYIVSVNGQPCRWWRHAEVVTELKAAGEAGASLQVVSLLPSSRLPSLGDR

SNTA1, Q13424 = molecular target: T10, SNTA1, Q13424
T10 sequence (Q13424 82-180, limits assumed, looked up): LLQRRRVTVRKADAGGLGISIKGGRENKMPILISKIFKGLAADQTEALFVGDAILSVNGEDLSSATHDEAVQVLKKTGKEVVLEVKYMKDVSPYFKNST

SNTG2, Q9NY99 = molecular target: T11, SNTG2, Q9NY99
T11 sequence (Q9NY99 68-166, limits assumed, looked up): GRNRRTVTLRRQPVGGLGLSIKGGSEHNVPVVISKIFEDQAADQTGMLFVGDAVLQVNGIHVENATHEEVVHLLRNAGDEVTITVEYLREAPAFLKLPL

TJP1_3, Q07157 = molecular target: TJP1_3, Q07157
TJP1_3, Q07157, sequence (Q07157 416-512): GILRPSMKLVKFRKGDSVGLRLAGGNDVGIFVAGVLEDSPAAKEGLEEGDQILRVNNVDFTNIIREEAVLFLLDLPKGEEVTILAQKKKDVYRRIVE

LNX1_2, Q8TBB1, sequence (Q8TBB1 371-470): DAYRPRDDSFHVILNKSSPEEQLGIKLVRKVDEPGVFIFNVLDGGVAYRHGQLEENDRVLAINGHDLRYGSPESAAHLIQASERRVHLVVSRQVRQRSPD
PDLIM1, O00151, sequence (O00151 1-87): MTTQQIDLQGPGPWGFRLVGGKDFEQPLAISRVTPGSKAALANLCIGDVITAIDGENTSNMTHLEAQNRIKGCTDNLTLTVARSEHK
IL16_3, Q14005, sequence (Q14005 1107-1207): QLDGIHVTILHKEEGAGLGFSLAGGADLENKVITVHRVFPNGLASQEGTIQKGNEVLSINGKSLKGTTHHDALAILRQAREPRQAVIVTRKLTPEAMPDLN
IL16_1, Q14005, sequence (Q14005 210-306): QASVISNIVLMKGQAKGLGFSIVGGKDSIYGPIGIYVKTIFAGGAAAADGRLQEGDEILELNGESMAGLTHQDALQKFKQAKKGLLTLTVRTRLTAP
ARHGEF12, Q9NZN5-2, sequence (Q9NZN5 other isoform, or with tags, fused parts or gaps): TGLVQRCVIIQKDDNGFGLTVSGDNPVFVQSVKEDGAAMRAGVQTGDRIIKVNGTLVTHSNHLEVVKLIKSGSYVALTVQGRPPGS
Inadl_3, Q8NI35, sequence (Q8NI35 359-469): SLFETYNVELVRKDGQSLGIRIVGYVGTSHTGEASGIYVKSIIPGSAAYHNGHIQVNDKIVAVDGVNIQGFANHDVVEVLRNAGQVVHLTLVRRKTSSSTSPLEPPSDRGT
GRID2IP_2, A4D2P6, sequence (A4D2P6 272-370): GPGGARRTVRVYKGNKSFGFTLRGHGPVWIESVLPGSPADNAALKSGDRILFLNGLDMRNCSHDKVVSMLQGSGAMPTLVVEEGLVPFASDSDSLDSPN
MAGI2_2, Q86UL8, sequence (Q86UL8 410-522): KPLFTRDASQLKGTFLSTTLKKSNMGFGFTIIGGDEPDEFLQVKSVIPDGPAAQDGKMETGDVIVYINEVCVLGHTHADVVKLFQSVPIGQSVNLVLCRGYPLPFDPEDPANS
MAGI3_2, Q5TCQ9, sequence (Q5TCQ9 398-503): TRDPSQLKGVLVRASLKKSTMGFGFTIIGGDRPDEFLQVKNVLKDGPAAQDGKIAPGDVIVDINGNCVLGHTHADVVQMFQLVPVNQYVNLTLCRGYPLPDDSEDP
PTPN3, P26045, sequence (P26045 505-587): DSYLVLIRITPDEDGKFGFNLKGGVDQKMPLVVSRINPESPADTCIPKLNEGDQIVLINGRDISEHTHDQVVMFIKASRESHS
HTRA1, Q92743, sequence (Q92743 360-477): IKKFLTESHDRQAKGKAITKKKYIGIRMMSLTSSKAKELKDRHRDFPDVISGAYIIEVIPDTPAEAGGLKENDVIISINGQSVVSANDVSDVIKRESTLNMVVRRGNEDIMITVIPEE
FRMPD3, Q5JV73, sequence (Q5JV73 12-100): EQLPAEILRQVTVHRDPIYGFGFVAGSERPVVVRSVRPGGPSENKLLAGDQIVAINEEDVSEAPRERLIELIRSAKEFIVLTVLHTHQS
MAST1, Q9Y2H9, sequence (Q9Y2H9 962-1065): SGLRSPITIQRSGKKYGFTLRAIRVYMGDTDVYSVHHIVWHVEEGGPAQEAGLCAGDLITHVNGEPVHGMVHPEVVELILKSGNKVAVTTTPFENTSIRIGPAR
DLG5_1, Q8TDM6, sequence (Q8TDM6 617-713): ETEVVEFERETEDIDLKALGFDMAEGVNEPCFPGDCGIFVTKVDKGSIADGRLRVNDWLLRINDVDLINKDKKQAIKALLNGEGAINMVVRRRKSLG
Inadl_5, Q8NI35, sequence (Q8NI35 673-780): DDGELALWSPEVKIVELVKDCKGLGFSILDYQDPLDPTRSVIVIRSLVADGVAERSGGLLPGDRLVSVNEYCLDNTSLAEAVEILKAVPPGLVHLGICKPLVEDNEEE

For VSVDDVRSTSQGLSSY [DFNB31_int, Q9P202], the pKd (APBA1_1, Q02410) was “below the threshold”, the pKd (ARHGEF11, O15085) was “below the threshold” and the pKd (ARHGEF12, Q9NZN5-2) was “below the threshold”. For the same binder, the pKd (DLG5_1, Q8TDM6) was “below the threshold”, the pKd (FRMPD3, Q5JV73) was “below the threshold” and the pKd (GRID2IP_2, A4D2P6) was “below the threshold”. For the same binder, the pKd (GRIP1_2, Q9Y3R0) was “below the threshold”, the pKd (HTRA1, Q92743) was “below the threshold” and the pKd (IL16_1, Q14005) was “below the threshold”. For the same binder, the pKd (IL16_3, Q14005) was “below the threshold”, the pKd (Inadl_3, Q8NI35) was “below the threshold” and the pKd (Inadl_5, Q8NI35) was “below the threshold”. The pKd (LNX1_2, Q8TBB1) was “below the threshold”, the pKd (MAGI2_2, Q86UL8) was “below the threshold” and the pKd (MAGI3_2, Q5TCQ9) was “below the threshold”. For the same binder, the pKd (MAST1, Q9Y2H9) was “below the threshold”, the pKd (MPP7, Q5T2T1) was “below the threshold” and the pKd (NHERF3_3, Q5T2W1) was “below the threshold”. The pKd (PDLIM1, O00151) was “below the threshold”, the pKd (PDZRN3_1, Q9UPQ7) was “below the threshold” and the pKd (PTPN3, P26045) was 3.68. The pKd (RADIL, Q96JH8) was “below the threshold”, the pKd (RAPGEF6, Q8TEU7) was “below the threshold” and the pKd (RHPN1, Q8TCX5) was “below the threshold”. The pKd (SNTA1, Q13424) was “below the threshold”, the pKd (SNTG2, Q9NY99) was “below the threshold” and the pKd (TJP1_3, Q07157) was “below the threshold”.
